Laboratory results published in patent US7452534.

B1: CE9γ4λK, chimeric anti-CD4 antibody with human gamma 4 heavy chain constant domain and human kappa light chain constant region (antibody)
heavy: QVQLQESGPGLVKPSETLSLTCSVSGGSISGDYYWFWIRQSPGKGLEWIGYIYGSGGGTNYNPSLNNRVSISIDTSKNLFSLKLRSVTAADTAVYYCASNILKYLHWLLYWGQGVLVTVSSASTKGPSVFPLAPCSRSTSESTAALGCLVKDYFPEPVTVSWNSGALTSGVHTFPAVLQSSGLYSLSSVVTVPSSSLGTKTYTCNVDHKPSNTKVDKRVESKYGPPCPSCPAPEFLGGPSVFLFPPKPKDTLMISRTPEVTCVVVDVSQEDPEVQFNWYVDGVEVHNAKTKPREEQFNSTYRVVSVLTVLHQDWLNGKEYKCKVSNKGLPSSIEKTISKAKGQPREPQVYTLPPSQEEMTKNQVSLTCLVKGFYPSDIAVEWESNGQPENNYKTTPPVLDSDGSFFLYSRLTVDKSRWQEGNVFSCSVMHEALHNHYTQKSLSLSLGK
light: SYELSQPRSVSVSPGQTAGFTCGGDNVGRKSVQWYQQKPPQAPVLVIYADSERPSGIPARFSGSNSGNTATLTISGVEAGDEADYYCQVWDSTADHWVFGGGTRLTVLG
notes: also called CE9γ4XK; CE9γ4K
B2: CE9.1, monkey/human chimeric anti-CD4 monoclonal antibody (cynomolgus variable domains, human gamma 1 / lambda constant regions) (antibody)
heavy: not shown
light: SYELSQPRSVSVSPGQTAGFTCGGDNVGRKSVQWYQQKPPQAPVLVIYADSERPSGIPARFSGSNSGNTATLTISGVEAGDEADYYCQVWDSTADHWVFGGGTRLTVLGQPKAAPSVTLFPPSSEELQANKATLVCLISDFYPGAVTVAWKADSSPVKAGVETTTPSKQSNNKYAASSYLSLTPEQWKSHRSYSCQVTHEGSTVEKTVAPTECS
notes: domain: gamma 1 constant region; the entries may be DNA and may hold a leader; also called mAb CE9.1; monkey/human recombinant antibody (ATCC No. 69030)
B3: CE9γ4E, chimeric anti-CD4 antibody with human gamma 4 constant domain carrying the E modification (L236E) (antibody, human IgG4, lambda)
heavy: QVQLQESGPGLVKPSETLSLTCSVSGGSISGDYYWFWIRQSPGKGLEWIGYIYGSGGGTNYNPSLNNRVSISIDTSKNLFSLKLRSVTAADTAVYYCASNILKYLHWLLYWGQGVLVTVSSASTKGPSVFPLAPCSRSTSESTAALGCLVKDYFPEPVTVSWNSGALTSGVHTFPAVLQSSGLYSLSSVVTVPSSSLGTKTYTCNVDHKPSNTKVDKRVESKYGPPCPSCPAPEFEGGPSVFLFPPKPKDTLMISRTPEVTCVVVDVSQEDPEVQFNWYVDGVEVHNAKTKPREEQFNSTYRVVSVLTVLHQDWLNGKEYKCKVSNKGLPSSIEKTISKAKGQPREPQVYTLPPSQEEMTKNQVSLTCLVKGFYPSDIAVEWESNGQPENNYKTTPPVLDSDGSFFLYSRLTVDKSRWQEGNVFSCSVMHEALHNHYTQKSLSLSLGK
light: B2 light
notes: IgG4 (L236E; 248 Kabat numbering) lambda; also called CE9γ4E(G4E); CE9γE
B4: CE9γ4, chimeric anti-CD4 antibody with human gamma 4 constant domain (antibody, human IgG4, lambda)
heavy: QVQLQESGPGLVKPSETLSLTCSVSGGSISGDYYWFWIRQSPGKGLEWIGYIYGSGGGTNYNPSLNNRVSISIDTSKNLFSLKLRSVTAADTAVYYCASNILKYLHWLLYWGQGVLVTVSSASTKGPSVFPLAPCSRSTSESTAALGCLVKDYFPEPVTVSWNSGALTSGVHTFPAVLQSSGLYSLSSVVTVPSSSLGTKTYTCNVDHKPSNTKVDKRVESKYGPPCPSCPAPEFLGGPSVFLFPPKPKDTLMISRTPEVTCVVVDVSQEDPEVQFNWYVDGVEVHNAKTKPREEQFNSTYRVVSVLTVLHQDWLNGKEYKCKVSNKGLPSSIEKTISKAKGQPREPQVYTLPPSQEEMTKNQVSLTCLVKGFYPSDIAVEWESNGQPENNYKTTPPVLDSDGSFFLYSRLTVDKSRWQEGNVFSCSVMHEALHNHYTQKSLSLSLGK
light: B2 light
notes: IgG4 lambda; also called CE9γ4(G4); anti-CD4 (G4, L, Oz-)
B5: CE9γ4PE, chimeric anti-CD4 antibody with human gamma 4 constant domain carrying the P and E modifications (S229P, L236E) (antibody, human IgG4 S228P, lambda)
heavy: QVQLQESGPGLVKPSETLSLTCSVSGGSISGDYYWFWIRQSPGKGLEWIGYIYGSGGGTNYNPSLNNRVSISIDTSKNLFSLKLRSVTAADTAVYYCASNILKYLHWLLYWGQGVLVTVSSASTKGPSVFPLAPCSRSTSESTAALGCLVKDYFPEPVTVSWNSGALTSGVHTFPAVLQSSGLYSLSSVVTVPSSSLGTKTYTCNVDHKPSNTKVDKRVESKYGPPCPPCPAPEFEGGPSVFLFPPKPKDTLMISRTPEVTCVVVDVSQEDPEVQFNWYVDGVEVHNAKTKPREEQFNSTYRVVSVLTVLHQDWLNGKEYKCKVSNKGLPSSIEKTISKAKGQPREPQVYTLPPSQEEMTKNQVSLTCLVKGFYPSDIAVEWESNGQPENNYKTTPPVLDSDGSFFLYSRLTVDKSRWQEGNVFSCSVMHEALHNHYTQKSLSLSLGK
light: B2 light
notes: IgG4 (S229P, L236E; 241 and 248 Kabat numbering) lambda, expressed in CHO; also called CE97PE(G4PE); CE9-4PE

Tests used:
[1] = molecular target: T1, recombinant human soluble CD4 (human, UniProt P01730 26-394, limits assumed); test: SPR (BIAcore) saturation binding of soluble CD4 to immobilized mAb
T1 construct: Soluble form; also called sCD4
Protocol: (§1) The stoichiometry of binding of soluble CD4 to immobilized mAbs can be determined by saturation binding experiments on BIAcore (Pharmacia). Data for the association and dissociation phases of the SPR progress (FIG. 19) were analyzed directly using the integrated form of the rate equations as described in O'Shannessey et al., Anal. Biochem., 212: 467-468 (1993). […] Thus, the stoichiometry of CD4 binding was the same for all mAbs and close to the theoretical value of 2.0.

[2] = molecular target: T1, recombinant human soluble CD4; test: SPR (BIAcore), soluble CD4 on immobilized mAb, 25 C
Protocol: as §1

[3] = molecular target: T1, recombinant human soluble CD4; test: SPR
human CD4 on cells [4] = molecular target: T2, human CD4 on cells (human, UniProt P01730 26-458); test: cell-based or functional assay
human CD4 on cells [5] = molecular target: T2, human CD4 on cells; test: cell-based or functional assay; remark: listed apart in the source
human C1q = molecular target: T3, human C1q (human, UniProt P02745 23-245; P02746 28-253; P02747 29-245); test: C1q binding (summary table of effector functions)
T3 construct: also called Clq
T3 sequence (P02745 23-245 limits assumed, chain 1 of 3): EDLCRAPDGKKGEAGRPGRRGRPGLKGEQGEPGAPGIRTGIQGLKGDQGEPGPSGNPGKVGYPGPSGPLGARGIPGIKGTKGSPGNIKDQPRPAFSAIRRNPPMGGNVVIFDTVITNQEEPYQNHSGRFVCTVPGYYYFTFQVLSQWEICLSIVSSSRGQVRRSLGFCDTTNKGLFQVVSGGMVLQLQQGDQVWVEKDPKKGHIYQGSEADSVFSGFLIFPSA
T3 sequence (P02746 28-253 limits assumed, chain 2 of 3): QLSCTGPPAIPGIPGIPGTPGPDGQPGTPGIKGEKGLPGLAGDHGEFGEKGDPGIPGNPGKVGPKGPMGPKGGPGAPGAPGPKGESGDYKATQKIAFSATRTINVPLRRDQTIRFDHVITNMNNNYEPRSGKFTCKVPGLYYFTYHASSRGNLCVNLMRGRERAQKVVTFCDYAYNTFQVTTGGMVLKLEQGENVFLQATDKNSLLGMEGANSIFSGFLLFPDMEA
T3 sequence (P02747 29-245 limits assumed, chain 3 of 3): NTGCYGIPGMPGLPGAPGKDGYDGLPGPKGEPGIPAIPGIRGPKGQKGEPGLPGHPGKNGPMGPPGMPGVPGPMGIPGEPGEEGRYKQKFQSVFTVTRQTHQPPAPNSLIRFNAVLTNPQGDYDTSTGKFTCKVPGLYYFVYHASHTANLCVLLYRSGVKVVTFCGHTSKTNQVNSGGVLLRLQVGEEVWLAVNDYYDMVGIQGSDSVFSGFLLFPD

[6] = molecular target: T4, chimpanzee CD4 on lymphocytes (chimpanzee, UniProt P16004 26-458); test: flow cytometry of blood of chimpanzees dosed at 1.5 mg/kg
T4 construct: whole, on cells
T4 sequence (P16004 26-458): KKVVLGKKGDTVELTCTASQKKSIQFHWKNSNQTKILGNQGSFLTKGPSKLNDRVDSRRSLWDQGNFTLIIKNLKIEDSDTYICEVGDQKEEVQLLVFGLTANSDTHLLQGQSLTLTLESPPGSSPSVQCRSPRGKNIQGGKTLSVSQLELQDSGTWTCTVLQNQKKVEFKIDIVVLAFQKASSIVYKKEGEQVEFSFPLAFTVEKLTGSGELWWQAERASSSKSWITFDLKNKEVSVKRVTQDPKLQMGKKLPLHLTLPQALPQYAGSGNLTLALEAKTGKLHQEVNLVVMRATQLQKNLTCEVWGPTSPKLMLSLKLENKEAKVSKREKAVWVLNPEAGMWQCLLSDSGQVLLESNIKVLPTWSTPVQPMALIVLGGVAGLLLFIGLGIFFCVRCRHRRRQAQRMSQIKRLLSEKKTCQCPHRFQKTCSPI
Protocol: Six chimpanzees were examined for depletion of CD4^+ T cells and/or modulation of the CD4 receptor from the cell surface after infusions of increasing doses of antibody CE9γ4PE, up to 15 mg/kg. Peripheral blood samples were taken from each chimpanzee three weeks and two weeks prior to the start of the study to establish baseline levels for CD4^+ T cells. In addition to CD4^+ cells, CD3^+ and CD8^+ cell levels were also measured by flow cytometry. […] By subtraction of CD8^+ counts from total CD3^+ counts a theoretical value for the number of CD4^+ T cells could be calculated. By comparing this value with the CD4^+ cells measured suing OKT4, CD4 receptor modulation could be distinguished from CD4^+ cell depletion.

Binder | BIAcore Stoichiometry [1] [moles CD4/mole mAb] | Kd [2] [nM] | Kd [3] [nM] | MLR IL-2 Production (IC50) (human CD4 on cells [4]) [µg/mL] | MLR Proliferation (IC50) (human CD4 on cells [4]) [µg/mL] | inhibition of human MLR (proliferation and IL-2 production), IC50 (human CD4 on cells [5]) [µg/mL] | binding result (human C1q) | binding result [6]
B1 | 1.67 | 1.08 | – | – | – | – | – | –
B2 | 1.56 | 0.99 | 1 | 0.005 | 0.02 | 0.01 to 0.03 | – | –
B3 | 1.72 | 1.43 | – | 0.01 | 0.02 | – | – | –
B4 | 1.61 | 1.34 | – | 0.005 | 0.02 | – | – | –
B5 | – | 1.09 | – | – | 0.02 | – | no binding | binds
